Source: patent publication US20230056099

What follows are sequences tested against thrombin (human alpha-thrombin) (UniProt P00734+P00734) (assay: inhibition). Conditions: circular (5' and 3' ends joined); 0.1 nM thrombin, 2 uM fibrinogen, absorbance 350 nm; N = random nucleotide.
With “ATCTCGACTAGTCATAGGGGGCGCGAACATACGCGGTTGGTGTGGTTGGCTGACAANNNNNNNTTTTGGTGTCTCGGAT [M3]” the IC50 was 180 pM. In the case of “ATCTCGACTAGTCATAGGGGGCGCGAACATACGCGGTTGGTGTGGTTGGCTGACAATACTCGTNNNNNNNGTCTCGGAT [M4]”, the IC50 is reported as 100 pM. “ATCTCGACTAGTCATAGGGGGCGCGAACATACGCGGTTGGTGTGGTTGGCTGACAATACTCGTTTTTGGTNNNNNNNNN [M5]” showed an IC50 of 110 pM. Sequence “ATCTCGANNNNNNNTAGGGGGCGCGAACATACGCGGTTGGTGTGGTTGGCTGACAATACTCGTTTTTGGTGTCTCGGAT [M2]” has an IC50 of 360 pM. Sequence “NNNNNNNCTAGTCATAGGGGGCGCGAACATACGCGGTTGGTGTGGTTGGCTGACAATACTCGTTTTTGGTGTCTCGGAT [M1]” has an IC50 of 370 pM.

Same assay, conditions: circular; 0.1 nM thrombin, 2 uM fibrinogen, absorbance 350 nm; random pool carrying fixed GGTTGGTGTGGTTGG core
“ATCTCGACTAGTCANNNNNNNNNNNNNNNNNNNNGGTTGGTGTGGTTGGNNNNNNNNNNNNNNNNNNNNTGTCTCGGAT [Lib (random circular nucleic acid)]” gave an IC50 of 72100 pM.
